In patent publication US20210371823A1 one finds killing effect of NK cells on 3T3-Luc/hMICA cells data, which are given here for 1 substance.

The experiment deals with human MICA protein (hMICA) (human) (UniProt Q29983). Put plainly: cell-based or functional assay.
Sequence of UniProt Q29983 (Q29983 24-383): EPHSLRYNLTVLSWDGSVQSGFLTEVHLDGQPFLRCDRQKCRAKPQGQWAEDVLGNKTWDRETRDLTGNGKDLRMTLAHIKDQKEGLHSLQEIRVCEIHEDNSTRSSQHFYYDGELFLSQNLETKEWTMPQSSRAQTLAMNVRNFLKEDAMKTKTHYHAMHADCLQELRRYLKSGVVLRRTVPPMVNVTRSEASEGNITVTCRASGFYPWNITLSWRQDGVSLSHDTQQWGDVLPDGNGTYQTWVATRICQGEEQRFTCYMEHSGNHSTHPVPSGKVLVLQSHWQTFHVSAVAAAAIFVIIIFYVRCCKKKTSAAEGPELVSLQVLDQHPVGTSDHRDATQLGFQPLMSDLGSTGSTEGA

As for “activation receptor NKG2D on NK cells (from UniProt P26718 1-216)”, the killing effect of NK cells on 3T3-Luc/hMICA cells at effector-target ratio 1:1 (luciferase-based killing assay) was 60%.
